From patent US20260167710A1 (GlaxoSmithKline, published 2026)

How the values were obtained:
human IL-33 [1] = biological target: T1, human IL-33 (human, Biotinylated in Example 2; the site is not stated.); test: cell-based or functional assay
T1 chain: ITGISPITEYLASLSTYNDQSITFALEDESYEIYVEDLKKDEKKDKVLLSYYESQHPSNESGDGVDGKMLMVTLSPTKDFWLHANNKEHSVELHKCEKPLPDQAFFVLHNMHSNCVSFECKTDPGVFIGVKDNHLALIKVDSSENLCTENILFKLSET

human IL-33 [2] = biological target: T1, human IL-33; test: cell-based or functional assay
human IL-33 [3] = biological target: T1, human IL-33; test: cell-based or functional assay
human IL-33 [4] = biological target: T1, human IL-33; test: cell-based or functional assay
cynomolgus IL-33 = biological target: T2, cynomolgus IL-33 (cynomolgus monkey, UniProt A0A2K5W3I1 112-269); test: MSD-SET solution equilibrium titration, 25 C, n = 3
T2 construct: also called cyno IL-33; cynomolgus monkey IL-33
T2 sequence: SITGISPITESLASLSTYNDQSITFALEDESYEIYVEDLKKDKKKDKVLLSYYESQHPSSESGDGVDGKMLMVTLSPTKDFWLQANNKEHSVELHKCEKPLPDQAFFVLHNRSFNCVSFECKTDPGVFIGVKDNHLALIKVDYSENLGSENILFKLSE

cFcgRIIa = biological target: T3, cFcgRIIa (cynomolgus monkey); test: SPR (ProteOn XPR36), anti-poly-histidine IgG surface, antibody as analyte, equilibrium fit, 25 C
T3 construct: extracellular domain; also called recombinant soluble cynomolgus monkey Fc gamma receptor IIa

cFcgRIIb = biological target: T4, cFcgRIIb (cynomolgus monkey); test: as above
T4 construct: extracellular domain

cFcgRIIIa = biological target: T5, cFcgRIIIa (cynomolgus monkey); test: as above
T5 construct: extracellular domain

[5] = biological target: T6, human recombinant neonatal receptor (FcRn) (human, UniProt P55899 24-297; P61769 21-119); test: SPR (ProteOn XPR36), antibody captured by protein L, FcRn as analyte, equilibrium fit, pH 7.4, 25 C
T6 construct: also called human FcRn; human recombinant soluble FcRn

[6] = biological target: T7, cynomolgus recombinant neonatal receptor (FcRn) (cynomolgus monkey, UniProt Q8SPV9 24-297; Q8SPW0 21-119); test: as above
T7 construct: extracellular domain; beta-2-microglobulin is not mentioned; also called cyno FcRn; cynomolgus monkey FcRn
T7 sequence (Q8SPV9 24-297 limits assumed, chain 1 of 2): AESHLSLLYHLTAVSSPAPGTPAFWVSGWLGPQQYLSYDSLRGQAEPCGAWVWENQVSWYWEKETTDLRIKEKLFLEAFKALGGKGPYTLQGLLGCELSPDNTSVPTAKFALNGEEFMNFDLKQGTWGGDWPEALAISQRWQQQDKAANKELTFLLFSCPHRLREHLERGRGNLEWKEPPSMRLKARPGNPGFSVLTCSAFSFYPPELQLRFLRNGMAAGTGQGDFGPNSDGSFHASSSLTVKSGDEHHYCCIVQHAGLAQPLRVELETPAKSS
T7 sequence (Q8SPW0 21-119 limits assumed, chain 2 of 2): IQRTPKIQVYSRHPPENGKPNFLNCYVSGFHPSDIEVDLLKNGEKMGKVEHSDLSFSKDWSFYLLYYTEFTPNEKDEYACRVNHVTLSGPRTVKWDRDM

T5 sequence (Q8SPW2 17-208): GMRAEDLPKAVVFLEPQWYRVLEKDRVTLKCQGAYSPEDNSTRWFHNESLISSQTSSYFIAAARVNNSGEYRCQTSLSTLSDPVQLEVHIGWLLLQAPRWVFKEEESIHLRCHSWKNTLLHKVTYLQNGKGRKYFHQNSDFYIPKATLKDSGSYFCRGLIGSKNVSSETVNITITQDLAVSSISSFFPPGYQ
T6 sequence (P55899 24-297 limits assumed, chain 1 of 2): as the sequence (Q8SPV9 24-297 limits assumed, chain 1 of 2) above, with D39N, Q44E, S99G, G189S, N190S, M217L, T269S counted along it
T6 sequence (P61769 21-119 limits assumed, chain 2 of 2): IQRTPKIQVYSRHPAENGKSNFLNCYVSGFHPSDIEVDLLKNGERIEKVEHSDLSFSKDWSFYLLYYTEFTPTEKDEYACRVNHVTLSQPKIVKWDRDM

B1: 22A06-458 (antibody, human IgG1, kappa)
heavy: QVQLVQSGAEVKKPGASVKVSCKASGYTFISYGMHWVRQAPGQGLEWMGEINPHGGSTSYAQKFKGRVTMTRDTSTSTVYMELSSLRSEDTAVYYCARPSAAYSHYLGIDLWGRGTLVTVSSASTKGPSVFPLAPSSKSTSGGTAALGCLVKDYFPEPVTVSWNSGALTSGVHTFPAVLQSSGLYSLSSVVTVPSSSLGTQTYICNVNHKPSNTKVDKKVEPKSCDKTHTCPPCPAPELLGGPSVFLFPPKPKDTLYITREPEVTCVVVDVSHEDPEVKFNWYVDGVEVHNAKTKPREEQYNSTYRVVSVLTVLHQDWLNGKEYKCKVSNKALPAPIEKTISKAKGQPREPQVYTLPPSRDELTKNQVSLTCLVKGFYPSDIAVEWESNGQPENNYKTTPPVLDSDGSFFLYSKLTVDKSRWQQGNVFSCSVMHEALHNHYTQKSLSLSPGK
light: DIQMTQSPSSVSASVGDRVTITCRASQGISSWLAWYQQKPGKAPKLLIYAASRLQSGVPSRFSGSGSGTDFTLTISSLQPEDFATYYCQQANVFPLTFGGGTKVEIKRTVAAPSVFIFPPSDEQLKSGTASVVCLLNNFYPREAKVQWKVDNALQSGNSQESVTEQDSKDSTYSLSSTLTLSKADYEKHKVYACEVTHQGLSSPVTKSFNRGEC
- pIC50, inhibition of 30 ng/mL IL-33/IL-12 induced IFN-γ secretion from whole blood, pre-complexed, donor #92257 (human IL-33 [1]): 8.75
- pIC50, inhibition of 30 ng/mL IL-33/IL-12 induced IFN-γ secretion from whole blood, pre-complexed, donor #92258 (human IL-33 [1]): 8.3
- IC50, inhibition of 10 ng/mL IL-33/IL-12 induced IFN-γ secretion from whole blood, pre-complexed, Mean (human IL-33 [2]): 1.95 nM
- IC50, inhibition of 10 ng/mL IL-33/IL-12 induced IFN-γ secretion from whole blood, pre-complexed, donor #91232 (human IL-33 [2]): 0.63 nM
- IC50, inhibition of 10 ng/mL IL-33/IL-12 induced IFN-γ secretion from whole blood, pre-complexed, donor #91845 (human IL-33 [2]): 2.72 nM
- IC50, inhibition of 10 ng/mL IL-33/IL-12 induced IFN-γ secretion from whole blood, pre-complexed, donor #92023 (human IL-33 [2]): 1.88 nM
- IC50, inhibition of 10 ng/mL IL-33/IL-12 induced IFN-γ secretion from whole blood, pre-complexed, donor #92257 (human IL-33 [2]): 0.81 nM
- IC50, inhibition of 10 ng/mL IL-33/IL-12 induced IFN-γ secretion from whole blood, pre-complexed, donor #92258 (human IL-33 [2]): 3.72 nM
- pIC50, inhibition of 10 ng/mL IL-33/IL-12 induced IFN-γ secretion from whole blood, pre-complexed, Mean (human IL-33 [2]): 8.8
- pIC50, inhibition of 10 ng/mL IL-33/IL-12 induced IFN-γ secretion from whole blood, pre-complexed, donor #91232 (human IL-33 [2]): 9.19
- pIC50, inhibition of 10 ng/mL IL-33/IL-12 induced IFN-γ secretion from whole blood, pre-complexed, donor #91845 (human IL-33 [2]): 8.56
- pIC50, inhibition of 10 ng/mL IL-33/IL-12 induced IFN-γ secretion from whole blood, pre-complexed, donor #92023 (human IL-33 [2]): 8.72
- pIC50, inhibition of 10 ng/mL IL-33/IL-12 induced IFN-γ secretion from whole blood, pre-complexed, donor #92257 (human IL-33 [2]): 9.08
- pIC50, inhibition of 10 ng/mL IL-33/IL-12 induced IFN-γ secretion from whole blood, pre-complexed, donor #92258 (human IL-33 [2]): 8.42
- IC50, inhibition of 30 ng/mL IL-33 induced IFN-γ secretion from whole blood, non-pre-complexed, Mean (human IL-33 [3]): 1.57 nM
- IC50, inhibition of 30 ng/mL IL-33 induced IFN-γ secretion from whole blood, non-pre-complexed, donor #32871 (human IL-33 [3]): 0.97 nM
- IC50, inhibition of 30 ng/mL IL-33 induced IFN-γ secretion from whole blood, non-pre-complexed, donor #90237 (human IL-33 [3]): 2.6 nM
- IC50, inhibition of 30 ng/mL IL-33 induced IFN-γ secretion from whole blood, non-pre-complexed, donor #91680 (human IL-33 [3]): 1.6 nM
- IC50, inhibition of 30 ng/mL IL-33 induced IFN-γ secretion from whole blood, non-pre-complexed, donor #91955 (human IL-33 [3]): 0.48 nM
- IC50, inhibition of 30 ng/mL IL-33 induced IFN-γ secretion from whole blood, non-pre-complexed, donor #91986 (human IL-33 [3]): 3.04 nM
- IC50, inhibition of 30 ng/mL IL-33 induced IFN-γ secretion from whole blood, non-pre-complexed, donor #92251 (human IL-33 [3]): 0.74 nM
- pIC50, inhibition of 30 ng/mL IL-33 induced IFN-γ secretion from whole blood, non-pre-complexed, Mean (human IL-33 [3]): 8.89
- pIC50, inhibition of 30 ng/mL IL-33 induced IFN-γ secretion from whole blood, non-pre-complexed, donor #32871 (human IL-33 [3]): 9.01
- pIC50, inhibition of 30 ng/mL IL-33 induced IFN-γ secretion from whole blood, non-pre-complexed, donor #90237 (human IL-33 [3]): 8.58
- pIC50, inhibition of 30 ng/mL IL-33 induced IFN-γ secretion from whole blood, non-pre-complexed, donor #91680 (human IL-33 [3]): 8.79
- pIC50, inhibition of 30 ng/mL IL-33 induced IFN-γ secretion from whole blood, non-pre-complexed, donor #91955 (human IL-33 [3]): 9.31
- pIC50, inhibition of 30 ng/mL IL-33 induced IFN-γ secretion from whole blood, non-pre-complexed, donor #91986 (human IL-33 [3]): 8.51
- pIC50, inhibition of 30 ng/mL IL-33 induced IFN-γ secretion from whole blood, non-pre-complexed, donor #92251 (human IL-33 [3]): 9.13
- IC50, inhibition of 10 ng/mL IL-33 induced IFN-γ secretion from whole blood, non-pre-complexed, Mean (human IL-33 [4]): 0.37 nM
- IC50, inhibition of 10 ng/mL IL-33 induced IFN-γ secretion from whole blood, non-pre-complexed, donor #32871 (human IL-33 [4]): 0.21 nM
- IC50, inhibition of 10 ng/mL IL-33 induced IFN-γ secretion from whole blood, non-pre-complexed, donor #90237 (human IL-33 [4]): 0.73 nM
- IC50, inhibition of 10 ng/mL IL-33 induced IFN-γ secretion from whole blood, non-pre-complexed, donor #91680 (human IL-33 [4]): 0.43 nM
- IC50, inhibition of 10 ng/mL IL-33 induced IFN-γ secretion from whole blood, non-pre-complexed, donor #91955 (human IL-33 [4]): 0.08 nM
- IC50, inhibition of 10 ng/mL IL-33 induced IFN-γ secretion from whole blood, non-pre-complexed, donor #91986 (human IL-33 [4]): 0.36 nM
- IC50, inhibition of 10 ng/mL IL-33 induced IFN-γ secretion from whole blood, non-pre-complexed, donor #92251 (human IL-33 [4]): 0.42 nM
- pIC50, inhibition of 10 ng/mL IL-33 induced IFN-γ secretion from whole blood, non-pre-complexed, Mean (human IL-33 [4]): 9.51
- pIC50, inhibition of 10 ng/mL IL-33 induced IFN-γ secretion from whole blood, non-pre-complexed, donor #32871 (human IL-33 [4]): 9.67
- pIC50, inhibition of 10 ng/mL IL-33 induced IFN-γ secretion from whole blood, non-pre-complexed, donor #90237 (human IL-33 [4]): 9.13
- pIC50, inhibition of 10 ng/mL IL-33 induced IFN-γ secretion from whole blood, non-pre-complexed, donor #91680 (human IL-33 [4]): 9.37
- pIC50, inhibition of 10 ng/mL IL-33 induced IFN-γ secretion from whole blood, non-pre-complexed, donor #91955 (human IL-33 [4]): 10.1
- pIC50, inhibition of 10 ng/mL IL-33 induced IFN-γ secretion from whole blood, non-pre-complexed, donor #91986 (human IL-33 [4]): 9.44
- pIC50, inhibition of 10 ng/mL IL-33 induced IFN-γ secretion from whole blood, non-pre-complexed, donor #92251 (human IL-33 [4]): 9.37
- Kd (cynomolgus IL-33): 0.0275 nM
- Kd (cFcgRIIa): 2110 nM
- Kd (cFcgRIIb): 1100 nM
- Kd (cFcgRIIIa): 119 nM
- Kd [5]: 1230 nM
- Kd [6]: 2560 nM
